For test [1], the target named is T1, human 5B6 (CLEC9A), membrane bound (human, UniProt Q6UXN8 1-241).
T1 construct: Full length on transfectant cells or native on human blood BDCA-3+ DC; also called h5B6; HEEE9341
The test can be described thus: flow cytometry on transiently transfected 293T cells; anti-FLAG 9H10-biotin and streptavidin-PE. The source says: To identify binding partners for the 5B6 molecule, the inventors generated soluble FLAG-tagged m5B6 and h5B6 which encompassed the ectodomain of 5B6 including the stalk region and the C-type lectin-like domain (CTLD), denoted in FIG. 11A as “Original (with stalk)”. A soluble FLAG-tagged ectodomain version of the C-type lectin Cire was also generated as a control molecule. […] Thus, soluble 5B6 can interact with membrane bound 5B6 in a cross-species manner.

In test [2] the target is T1, human 5B6 (CLEC9A), membrane bound. In words: flow cytometry on cells expressing 5B6.

From patent US20110126301A1 (WALTER AND ELIZA HALL INSTITUTE OF MEDICAL RESEARCH, published 2011) come the findings set out here.

T1 sequence (Q6UXN8 whole entry): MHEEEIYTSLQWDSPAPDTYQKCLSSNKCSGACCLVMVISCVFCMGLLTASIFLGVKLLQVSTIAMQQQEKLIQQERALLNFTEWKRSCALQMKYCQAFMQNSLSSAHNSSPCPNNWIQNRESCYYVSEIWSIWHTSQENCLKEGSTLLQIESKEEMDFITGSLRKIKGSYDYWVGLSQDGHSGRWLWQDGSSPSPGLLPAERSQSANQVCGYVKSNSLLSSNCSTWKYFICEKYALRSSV

B1: soluble FLAG-tagged mouse 5B6 including stalk (receptor)
chain: ASISARQNSGLHHILDAQKMVWNHRGARQDYKDDDDKTREQQERLIQQDTALVNLTQWQRKYTLEYCQALLQRSLHSGTDASTGPVLLTSPQMVPQTLDSKETGSDCSPCPHNWIQNGKSCYYVFERWEMWNISKKSCLKEGASLFQIDSKEEMEFISSIGKLKGGNKYWVGVFQDGISGSWFWEDGSSPLSDLLPAERQRSAGQICGYLKDSTLISDKCDSWKYFICEKKAFGSCI
notes: also called soluble m5B6; soluble mouse 5B6
Take B1: the binding result in test [1] is “binds”.

B2: rat mAb 24/04-10B4 (anti-5B6 / anti-Clec9A antibody) (antibody, V domains shown)
VH: AVQIVESGGGLVQPKESLKISCTASGFTFSNAAIYWVRQTPGKGLEWVGRIRTRPSKYATDYADSVRGRFTISRDDSKSMVYLQMDNLRTEDTAMYYCTPRATEDVPFYWGQGVMVTVSS
VL: DIVMTQTPSSQAVSAGEKVTMNCKSSQSVLYDENKKNYLAWYQQKSGQSPKLLIYWASTGESGVPDRFIGSGSGTDFTLTISSVQAEDLAVYYCQQYYDFPPTFGGGTKLELKR
notes: Rat IgG2a, kappa, from hybridoma 24/04-10B4 (peptide immunisation); Used biotinylated or APC-conjugated in flow cytometry; also called anti-m5B6 mAb; anti-5B6 mAb
Take B2: the binding result in test [2] was “binds”.

B3: soluble FLAG-tagged human 5B6 including stalk (receptor)
chain: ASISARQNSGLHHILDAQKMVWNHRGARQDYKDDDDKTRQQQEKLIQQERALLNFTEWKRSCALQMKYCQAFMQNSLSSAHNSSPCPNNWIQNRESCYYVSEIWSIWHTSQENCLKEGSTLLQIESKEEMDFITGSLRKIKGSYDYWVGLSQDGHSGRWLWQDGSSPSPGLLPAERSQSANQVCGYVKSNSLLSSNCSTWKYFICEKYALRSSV
notes: also called soluble h5B6; soluble human 5B6
For the molecule B3, the binding result in test [1] was “binds”.
